Laboratory results: publication PMC11090974, “Structural basis for the distinct roles of non-conserved Pro116 and conserved Tyr124 of BCH domain of yeast p50RhoGAP” (Cellular and Molecular Life Sciences: CMLS, 2024)
Changes are numbered by the printed parent chain. In names and notes the source's numbering stands. Several values for one entry are separate records, joined by “and”; a condition that tells them apart may be missing. Identical values can stand only once.

B1: BCH domain of S. pombe p50RhoGAP, wild type (YBCH 1-156 a.a) (domain or fragment, UniProt Q9P3B1 1-156, looked up)
chain: MEHDLERLCFIGGYDNDNDKVIVVVTKNLELFKKYDDINLIKEAYNHVHKLIQKDERYTAVFFAHDSTVFSYLGLSLKAYYGMDYYLHKNVKAVYVIHTDWMSKVAIRTLLSIASPKFTRKFRYLNSISDLNKYIPLSHLKLPPIVYEFDRNVEPA
notes: S. pombe homolog of p50RhoGAP (SPAC1565.02c protein), BCH domain, residues 1-156; The methods tell cloning, expression and purification only for the P116A mutant (parent construct (His)6-SlyD YBCH in pET32a); also called WT YBCH; yeast BCH
B2: P116A mutant of the BCH domain of S. pombe p50RhoGAP (YBCH 1-156 a.a) (domain or fragment, UniProt Q9P3B1 1-156, looked up)
chain: B1 chain with P116A
notes: S. pombe homolog of p50RhoGAP (SPAC1565.02c protein), BCH domain, residues 1-156, Pro116 to Ala; SlyD tag cleaved with PreScission protease; also called P116A-YBCH; YBCH P116A; source: E. coli BL21 (DE3), purified (Ni-NTA, cation exchange, gel filtration)

Target: the molecule itself
Test: AUC; sedimentation velocity, 2.4 mg/ml, absorbance at 280 nm, 40,000 rpm, 24 °C, analysed with Sedfit

| Protein | stoichiometry N |
| --- | --- |
| B1 | 2 |
| B2 | 2 and 4 |
